# According to patent publication US20120100161A1 (DEUTSCHES KREBSFORSCHUNGSZENTRUM, published 2012):
# B1: chimeric antibody huHEA125 (antibody, human IgG1, kappa)
# heavy: not shown
# light: DILLTQSPAILSVSPGERVSFSCRASQSIGISLHWYQQRPSDSPRLLIKYASESISGIPSRFSGSGSGTDFTLSINSVESEDIADYYCQQSNIWPTTFGAGTKLELKRTVAAPSVFIFPPSDEQLKSGTASVVCLLNNFYPREAKVQWKVDNALQSGNSQESVTEQDSKDSTYSLSSTLTLSKADYEKHKVYACEVTHQGLSSPVTKSFNRGEC
# notes: Mouse HEA125 variable domains on human kappa and human IgG1 constant regions; also called unmodified huHEA125 antibody; non-conjugated huHEA125 antibody
# Target: T1, Epithelial cell adhesion molecule (EpCAM, CD326) (human, UniProt P16422 24-314)
# T1 construct: whole, on cells; Endogenous EpCAM on carcinoma cell lines; also called EpCAM antigen
# T1 sequence (looked up): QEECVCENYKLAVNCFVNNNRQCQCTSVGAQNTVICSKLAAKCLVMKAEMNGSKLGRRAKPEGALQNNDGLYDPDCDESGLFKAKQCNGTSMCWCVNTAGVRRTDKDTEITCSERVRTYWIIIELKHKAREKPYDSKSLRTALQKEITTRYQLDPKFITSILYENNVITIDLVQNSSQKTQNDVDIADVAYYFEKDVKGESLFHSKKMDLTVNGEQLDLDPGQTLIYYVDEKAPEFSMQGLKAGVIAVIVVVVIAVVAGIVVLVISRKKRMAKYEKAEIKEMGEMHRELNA
# Test: binding to EpCAM-expressing cells; method not stated
binder,measurement,value
B1,Kd,2.2 nM
